In IntAct's records for PubMed 21059944:

B1: Tumor necrosis factor receptor superfamily member 11A (Mus musculus), O35305 (parent)
chain: MAPRARRRRQLPAPLLALCVLLVPLQVTLQVTPPCTQERHYEHLGRCCSRCEPGKYLSSKCTPTSDSVCLPCGPDEYLDTWNEEDKCLLHKVCDAGKALVAVDPGNHTAPRRCACTAGYHWNSDCECCRRNTECAPGFGAQHPLQLNKDTVCTPCLLGFFSDVFSSTDKCKPWTNCTLLGKLEAHQGTTESDVVCSSSMTLRRPPKEAQAYLPSLIVLLLFISVVVVAAIIFGVYYRKGGKALTANLWNWVNDACSSLSGNKESSGDRCAGSHSATSSQQEVCEGILLMTREEKMVPEDGAGVCGPVCAAGGPWAEVRDSRTFTLVSEVETQGDLSRKIPTEDEYTDRPSQPSTGSLLLIQQGSKSIPPFQEPLEVGENDSLSQCFTGTESTVDSEGCDFTEPPSRTDSMPVSPEKHLTKEIEGDSCLPWVVSSNSTDGYTGSGNTPGEDHEPFPGSLKCGPLPQCAYSMGFPSEAAASMAEAGVRPQDRADERGASGSGSSPSDQPPASGNVTGNSNSTFISSGQVMNFKGDIIVVYVSQTSQEGPGSAEPESEPVGRPVQEETLAHRDSFAGTAPRFPDVCATGAGLQEQGAPRQKDGTSRPVQEQGGAQTSLHTQGSGQCAE

Variants of: B1
Conditions: with Tnfsf11, O35235-1
Sequence of Tnfsf11, O35235-1 (O35235 whole entry): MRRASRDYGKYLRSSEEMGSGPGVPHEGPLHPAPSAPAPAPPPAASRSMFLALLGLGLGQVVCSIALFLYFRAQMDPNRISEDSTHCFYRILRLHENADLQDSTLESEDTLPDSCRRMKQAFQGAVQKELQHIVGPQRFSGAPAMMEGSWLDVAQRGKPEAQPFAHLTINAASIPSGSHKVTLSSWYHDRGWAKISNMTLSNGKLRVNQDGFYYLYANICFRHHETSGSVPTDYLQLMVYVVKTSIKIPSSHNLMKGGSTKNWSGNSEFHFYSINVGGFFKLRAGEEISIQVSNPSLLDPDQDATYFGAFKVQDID

| Variant | effect of a mutation on the interaction |
| --- | --- |
| K97A | disrupting interaction |
| D85A | decreasing interaction |
| C127A | disrupting interaction |
| K171G | disrupting interaction |
| G54R | disrupting interaction |
| E126A | disrupting interaction |
